{
  "source": "paper PMC3747071",
  "target": "HA-tagged GW182 (Drosophila) (UniProt Q8SY33)",
  "sequence (Q8SY33 whole entry)": "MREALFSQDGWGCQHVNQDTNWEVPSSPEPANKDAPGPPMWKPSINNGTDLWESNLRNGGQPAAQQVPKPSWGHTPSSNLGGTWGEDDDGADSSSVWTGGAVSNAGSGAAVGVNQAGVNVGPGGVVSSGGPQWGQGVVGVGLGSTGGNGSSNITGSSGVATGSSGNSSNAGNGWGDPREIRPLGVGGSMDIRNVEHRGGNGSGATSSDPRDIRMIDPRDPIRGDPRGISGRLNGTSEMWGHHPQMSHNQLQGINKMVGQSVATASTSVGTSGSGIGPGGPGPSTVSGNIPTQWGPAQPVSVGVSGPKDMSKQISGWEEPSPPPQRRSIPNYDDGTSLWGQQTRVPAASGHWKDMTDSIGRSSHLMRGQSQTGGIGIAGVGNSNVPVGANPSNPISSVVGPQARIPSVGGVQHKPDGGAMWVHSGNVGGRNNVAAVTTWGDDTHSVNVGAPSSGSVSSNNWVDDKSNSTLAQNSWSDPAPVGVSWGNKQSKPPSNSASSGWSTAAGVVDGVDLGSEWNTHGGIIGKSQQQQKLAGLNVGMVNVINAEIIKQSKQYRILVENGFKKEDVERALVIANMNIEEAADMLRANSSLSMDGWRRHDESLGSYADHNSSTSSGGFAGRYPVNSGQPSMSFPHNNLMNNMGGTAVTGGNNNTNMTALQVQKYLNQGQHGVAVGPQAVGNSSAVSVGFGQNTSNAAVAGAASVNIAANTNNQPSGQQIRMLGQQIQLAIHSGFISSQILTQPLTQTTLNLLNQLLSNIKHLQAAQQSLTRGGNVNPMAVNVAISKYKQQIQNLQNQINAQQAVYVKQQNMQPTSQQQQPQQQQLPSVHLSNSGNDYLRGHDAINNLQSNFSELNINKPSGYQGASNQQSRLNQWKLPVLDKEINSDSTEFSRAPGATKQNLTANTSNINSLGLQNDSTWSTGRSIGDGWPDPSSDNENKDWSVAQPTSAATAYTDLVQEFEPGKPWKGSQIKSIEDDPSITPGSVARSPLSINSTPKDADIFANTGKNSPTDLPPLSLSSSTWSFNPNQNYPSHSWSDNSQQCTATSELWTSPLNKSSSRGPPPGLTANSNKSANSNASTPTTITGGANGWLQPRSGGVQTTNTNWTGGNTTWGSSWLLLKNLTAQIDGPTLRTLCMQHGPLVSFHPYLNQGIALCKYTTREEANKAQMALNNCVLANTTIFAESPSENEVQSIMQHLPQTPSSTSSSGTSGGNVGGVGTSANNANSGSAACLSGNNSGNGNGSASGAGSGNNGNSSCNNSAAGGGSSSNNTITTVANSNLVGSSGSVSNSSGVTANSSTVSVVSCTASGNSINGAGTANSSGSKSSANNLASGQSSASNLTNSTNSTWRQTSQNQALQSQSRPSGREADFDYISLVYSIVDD",
  "experiment": "co-IP; lysate of stable S2 cells expressing HA-GW182 and Myc-HPat, treated with dsRNA against YFP (control), AGO1, NOT1, EDC4 and DCP1, or XRN1; anti-HA antibody (12CA5) cross-linked to protein A sepharose; washes with NET buffer with 300 mM NaCl; quantitative Western blot",
  "data": [
    {"substance": "Myc-tagged HPat (natural protein)", "values": [
      {"measurement": "decrease of the Myc-HPat/HA-GW182 ratio in the immunoprecipitate, AGO1 knockdown cells against dsYFP control cells", "result": 84.6, "unit": "%"},
      {"measurement": "decrease of the Myc-HPat/HA-GW182 ratio in the immunoprecipitate, NOT1 knockdown cells against dsYFP control cells", "result": 69.7, "unit": "%"}
    ]}
  ]
}
